Laboratory results from patent publication US6645939 (MERCK, dated 2003).

Assays:
[1] = molecular target: T1, α4β7 integrin on RPMI-8866 cells (human, UniProt P13612 34-1032; P26010 20-798); assay: radiolabeled VCAM-Ig (<500 pM) on RPMI-8866 cells, MnCl2, filter plates, scintillation counting
T1 construct: whole, on cells; Endogenous integrin on RPMI-8866 cells; also called LPAM-1
Procedure: (§1) Compounds of this invention were prepared in DMSO at 100× the desired final assay concentration. Final concentrations were selected from a range between 0.001 nM-100 μM. […] The plates were incubated at room temperature for 45 minutes on a plate shaker at 200 rpm, filtered on a vacuum box, and washed on the same apparatus by the addition of 100 μL of binding buffer containing 1mM MnCl_2. After insertion of the multiscreen plates into adapter plates (Packard, Meriden, Coon., cat# 6005178), 100 μL of Microscint-20 (Packard cat# 6013621) was added to each well. The plates were then sealed, placed on a shaker for 30 seconds, and counted on a Topcount microplate scintillation counter (Packard). Control wells containing DMSO alone were used to determine the level of VCAM-Ig binding corresponding to 0% inhibition. […] Percent inhibition was then calculated for each test well and the IC$50$ was determined from a ten point titration using a validated four parameter fit algorithm.

[2] = molecular target: T2, VLA-4 (α4β1) on Jurkat cells, clone E6-1 (UniProt P13612 34-1032; P05556 21-798, limits assumed); assay: radiolabeled VCAM-Ig (~100 pM) on Jurkat cells, 1 mM MnCl2, filter plates, scintillation counting
T2 construct: whole, on cells; Endogenous integrin on Jurkat cells; also called very late antigen-4; CD49d/CD29
T2 sequence (P13612 34-1032 limits assumed, chain 1 of 2): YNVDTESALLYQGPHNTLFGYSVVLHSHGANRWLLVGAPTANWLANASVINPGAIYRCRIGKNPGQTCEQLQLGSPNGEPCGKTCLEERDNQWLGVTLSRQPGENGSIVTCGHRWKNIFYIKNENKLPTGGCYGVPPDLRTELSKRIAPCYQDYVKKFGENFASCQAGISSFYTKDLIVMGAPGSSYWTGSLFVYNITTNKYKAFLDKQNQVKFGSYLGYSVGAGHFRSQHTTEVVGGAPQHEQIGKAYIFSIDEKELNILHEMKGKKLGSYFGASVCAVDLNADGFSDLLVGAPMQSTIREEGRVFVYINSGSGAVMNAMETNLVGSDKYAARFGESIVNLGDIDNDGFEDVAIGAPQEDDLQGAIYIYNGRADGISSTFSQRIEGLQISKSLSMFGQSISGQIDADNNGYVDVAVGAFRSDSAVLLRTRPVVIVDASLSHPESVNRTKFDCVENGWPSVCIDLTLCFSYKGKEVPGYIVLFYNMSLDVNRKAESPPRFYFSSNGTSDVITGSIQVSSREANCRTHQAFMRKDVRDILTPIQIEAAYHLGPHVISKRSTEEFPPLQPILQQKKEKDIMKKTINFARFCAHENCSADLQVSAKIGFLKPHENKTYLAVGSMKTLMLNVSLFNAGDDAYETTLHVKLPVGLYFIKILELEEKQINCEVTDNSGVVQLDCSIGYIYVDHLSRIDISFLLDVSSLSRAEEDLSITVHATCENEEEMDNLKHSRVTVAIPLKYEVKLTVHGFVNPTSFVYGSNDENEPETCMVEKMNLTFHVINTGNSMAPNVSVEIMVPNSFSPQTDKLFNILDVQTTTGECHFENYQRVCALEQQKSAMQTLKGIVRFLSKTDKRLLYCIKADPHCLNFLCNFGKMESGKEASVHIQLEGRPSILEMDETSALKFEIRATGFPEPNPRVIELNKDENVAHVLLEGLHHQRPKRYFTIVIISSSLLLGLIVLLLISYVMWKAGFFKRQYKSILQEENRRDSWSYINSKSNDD
T2 sequence (P05556 21-798 limits assumed, chain 2 of 2): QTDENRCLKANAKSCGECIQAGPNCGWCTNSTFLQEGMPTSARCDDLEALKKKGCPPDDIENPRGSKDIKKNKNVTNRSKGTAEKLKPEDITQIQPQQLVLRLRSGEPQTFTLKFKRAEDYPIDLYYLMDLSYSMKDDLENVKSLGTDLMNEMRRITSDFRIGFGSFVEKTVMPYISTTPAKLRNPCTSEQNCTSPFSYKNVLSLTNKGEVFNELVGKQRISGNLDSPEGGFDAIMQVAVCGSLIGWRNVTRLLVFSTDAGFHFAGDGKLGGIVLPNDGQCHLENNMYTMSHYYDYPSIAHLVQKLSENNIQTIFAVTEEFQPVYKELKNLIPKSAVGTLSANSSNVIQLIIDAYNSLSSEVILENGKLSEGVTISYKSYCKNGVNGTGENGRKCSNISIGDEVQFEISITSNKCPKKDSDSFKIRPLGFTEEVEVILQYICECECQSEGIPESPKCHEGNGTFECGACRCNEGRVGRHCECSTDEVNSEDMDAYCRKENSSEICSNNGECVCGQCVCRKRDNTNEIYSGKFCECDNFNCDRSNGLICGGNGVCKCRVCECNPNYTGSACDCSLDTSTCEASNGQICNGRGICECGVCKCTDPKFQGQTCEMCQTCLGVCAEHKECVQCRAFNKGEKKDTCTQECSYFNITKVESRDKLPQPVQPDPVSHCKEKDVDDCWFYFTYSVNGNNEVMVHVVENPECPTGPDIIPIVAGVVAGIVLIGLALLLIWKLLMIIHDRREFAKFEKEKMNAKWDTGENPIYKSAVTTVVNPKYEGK
Procedure: as §1, with “μM. Jurkat cells were centrifuged at 400×g for five minutes and resuspended in binding buffer (25 mM HEPES, 150 mM NaCl, 3 mM KCl, 2 mM glucose, 0.1% bovine serum albumin, pH 7.4). The cells were centrifuged again and resuspended in binding buffer supplemented with MnCl_2 at a final concentration of 1 mM.” for “μM.”, “30 minutes,” for “45 minutes on a plate shaker at 200 rpm,”, “1 mM” for “1mM”, “Conn.,” for “Coon.,”, “$IC50$” for “IC$50$”

T1 sequence (P13612 34-1032, chain 1 of 2): as the sequence (P13612 34-1032 limits assumed, chain 1 of 2) above
T1 sequence (P26010 20-798, chain 2 of 2): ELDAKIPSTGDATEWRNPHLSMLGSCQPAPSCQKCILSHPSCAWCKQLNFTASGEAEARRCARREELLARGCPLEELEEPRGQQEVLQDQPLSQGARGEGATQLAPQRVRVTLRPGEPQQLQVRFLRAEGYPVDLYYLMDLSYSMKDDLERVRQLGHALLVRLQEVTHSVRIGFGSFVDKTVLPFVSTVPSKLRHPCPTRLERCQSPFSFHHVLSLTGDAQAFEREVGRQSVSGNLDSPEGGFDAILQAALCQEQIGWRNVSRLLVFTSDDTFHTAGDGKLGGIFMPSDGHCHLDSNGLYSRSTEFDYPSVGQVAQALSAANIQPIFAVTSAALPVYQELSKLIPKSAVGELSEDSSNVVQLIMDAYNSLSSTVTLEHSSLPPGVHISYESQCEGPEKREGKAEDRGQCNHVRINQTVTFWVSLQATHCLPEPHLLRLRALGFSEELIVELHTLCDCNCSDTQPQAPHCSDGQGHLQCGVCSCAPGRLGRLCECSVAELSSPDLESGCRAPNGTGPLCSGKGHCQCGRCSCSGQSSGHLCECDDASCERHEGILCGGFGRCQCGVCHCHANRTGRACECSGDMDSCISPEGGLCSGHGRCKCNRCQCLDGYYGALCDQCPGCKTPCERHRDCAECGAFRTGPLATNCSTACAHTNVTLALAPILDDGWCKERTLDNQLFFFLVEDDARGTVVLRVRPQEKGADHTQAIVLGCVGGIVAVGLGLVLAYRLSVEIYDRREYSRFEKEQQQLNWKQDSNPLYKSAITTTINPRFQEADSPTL

B1: VCAM-Ig fusion protein (Fc fusion, not shown: small tags and cut ends)
chain: FKIETTPESRYLAQIGDSVSLTCSTTGCESPFFSWRTQIDSPLNGKVTNEGTTSTLTMNPVSFGNEHSYLCTATCESRKLEKGIQVEIYSFPKDPEIHLSGPLEAGKPITVKCSVADVYPFDRLEIDLLKGDHLMKSQEFLEDADRKSLETKSLEVTFTPVIEDIGKVLVCRAKLHIDEMDSVPTVRQAVKEL
modifications: labeled with 125I-Bolton Hunter reagent (sites not given)
- binding result [1]: binds
- binding result [2]: binds
